Source: patent publication US20240069033A1, “METHOD FOR SCREENING FOR CANDIDATE MOLECULE CAPABLE OF FORMING COMPLEX IN CONJUNCTION WITH PLURALITY OF TARGET MOLECULES” (Chugai Seiyaku Kabushiki Kaisha, priority 2020, published 2024)
No end group written: not given here.

Key:
[1] = test system: anti-ubiquitin antibodies (Mouse IgG1 monoclonal antibody; clone name FK2); assay: Complementation assay of splitUbiquitin using mRNA display (anti-ubiquitin antibody beads, qPCR); type: binding
From the text: As described above, screening a library for a candidate molecule capable of forming a complex with a plurality of target molecules requires a system that suppresses the recovery rate of a test molecule that forms a complex with only one target molecule. […] Ubiquitin I13A variants were used in the experiment. In this Example, the ubiquitin N-terminal fragment to which a GS linker is attached at the C-terminus is referred to as splitUb(N), the ubiquitin C-terminal fragment to which a GS linker is attached at the C-terminus is referred to as splitUb(C), and the protein in which splitUb(N) and splitUb(C) are linked by a GSGS linker and to which a GS linker is attached at the C-terminus is referred to as splitUb(N-C).
To simultaneously evaluate the interactions of the ubiquitin N-terminal fragment and the C-terminal fragment when they are independent, the conditions of mixing the display molecule of splitUb(N) and the display molecule of splitUb(C) at 1: 1 were reacted in the same way.

splitNanoluc1-8 = biological target: T1, splitNanoluc1-8 (Oplophorus gracilirostris, UniProt Q9GV45, A31E/A60N/A81I/D135N/F58L/F95D/G42A/G62A/G78A/G94A/G98A/H120P/I103V/I117V/I134L/K70R/L54V/L73R/L99Q/M102E/N171T/P142E/Q151K/Q38E/Q45L/V71I/Y165I); assay: Complementation assay of split Nanoluc using mRNA display (pull-down with biotinylated splitNanoluc1-8, qPCR); type: binding; settings: for Recovered nucleic acid amount (molecules): 33 nM Display molecule + 1 μM biotinylated splitNanoluc1-8, room temperature 1 hour, streptavidin pull-down, TEV elution, qPCR; for Recovery rate (%): apparent recovery rate corrected with display efficiency; for Apparent recovery rate (%): recovered/input nucleic acid amount
T1 construct: made in house
T1 sequence (Q9GV45 other isoform, or with tags, fused parts or gaps with the stated changes): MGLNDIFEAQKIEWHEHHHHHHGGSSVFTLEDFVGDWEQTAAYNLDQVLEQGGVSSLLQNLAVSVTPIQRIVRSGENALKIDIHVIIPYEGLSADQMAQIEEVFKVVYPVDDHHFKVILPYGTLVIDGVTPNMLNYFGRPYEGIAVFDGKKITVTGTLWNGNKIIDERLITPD
Method: Thus, each binding ability of splitNanoluc-9 (SEQ ID NO: 66), splitNanoluc-10 (SEQ ID NO: 67), and splitNanoluc9-10 fusion peptide (SEQ ID NO: 65) to splitNanoluc1-8 (SEQ ID NO: 85) was evaluated.
Display molecules in which mRNA and a peptide are linked were prepared, and the recovery rate with biotinylated splitNanoluc1-8 was examined.

Substance | Recovered nucleic acid amount (molecules) ([1]; anti-ubiquitin antibody (FK2) magnetic beads, room temperature 1 hour, qPCR) | Recovery rate (%) ([1]; apparent recovery rate corrected with display efficiency) | Apparent recovery rate (%) ([1]; recovered/input nucleic acid amount) | Recovered nucleic acid amount (molecules) (splitNanoluc1-8) | Recovery rate (%) (splitNanoluc1-8) | Apparent recovery rate (%) (splitNanoluc1-8)
splitUb (N): mRNA Display molecule of ubiquitin (I13A) N-terminal fragment with GS linker (SEQ ID NO: 45) (MMQIFVKTLTGKTATLEVEPSDTIENVKAKIQDKEGIPGSGSGSGSKK; also: mRNA display linkage) | 1.63E+10 | 1.040 | 0.931 |  |  | 
splitNanoluc-10: mRNA Display molecule of Nanoluc 10th strand with GS linker and TEV sequence (SEQ ID NO: 67) (MVSGWRLFKKISGSGSGSGSENLYFQGKK; also: mRNA display conjugate) |  |  |  | 5.04E+06 | 0.016 | 0.011
splitNanoluc9-10: mRNA Display molecule of Nanoluc 9th and 10th strands linked by GS linker, with TEV sequence (SEQ ID NO: 65) (MGSMLFRVTINSGGGSGGGGSGVSGWRLFKKISGSGSGSGSENLYFQGKK; also: mRNA display conjugate) |  |  |  | 3.45E+09 | 33.155 | 12.632
splitNanoluc-9: mRNA Display molecule of Nanoluc 9th strand with GS linker and TEV sequence (SEQ ID NO: 66) (MGSMLFRVTINSGSGSGSGSENLYFQGKK; also: mRNA display conjugate) |  |  |  | 2.53E+06 | 0.049 | 0.008
